We go through two proteins from patent US11001824.

Numbering of substitutions follows the chain as printed. Numbers in names are those of the source.

The series has as its target T1, denatured bovine pancreatic Ribonuclease B, P61823.
T1 chain: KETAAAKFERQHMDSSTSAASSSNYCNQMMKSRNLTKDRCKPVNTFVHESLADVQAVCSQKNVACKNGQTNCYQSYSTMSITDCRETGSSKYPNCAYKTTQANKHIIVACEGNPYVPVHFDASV

B1: wild-type PNGase F from Flavobacterium meningosepticum (protein)
chain: GIPAPADNTVNIKTFDKVKNAFGDGLSQSAEGTFTFPADVTAVKTIKMFIKNECPNKTCDEWDRYANVYVKNKTTGEWYEIGRFITPYWVGTEKLPRGLEIDVTDFKSLLSGNTELKIYTETWLAKGREYSVDFDIVYGTPDYKYSAVVPVVQYNKSSIDGVPYGKAHTLALKKNIQLPTNTEKAYLRTTISGWGHAKPYDAGSRGCAEWCFRTHTIAINNSNTFQHQLGALGCSANPINNQSPGNWTPDRAGWCPGMAVPTRIDVLNNSLIGSTFSYEYKFQNWTNNGTNGDAFYAISSFVIAKSNTPISAPVVTNLDPHHHHHH
With B1, the “Deglycosylation Activity on RNase B (gel shift assay)” value came out at 100% and the “N-glycanase activity assay (gel shift)” value is given as “PNGase F completely de-glycosylates 1 µg of RNase B under the assay conditions described”.

B2: PNGase F D60A single point mutant (protein)
chain: B1 chain with D63A
On to B2, for which the “Deglycosylation Activity on RNase B (gel shift assay)” value was determined as 13.4%.
